Laboratory results reported in IntAct's records for PubMed 18075593.

Target: cry1_mouse Cry1 (UniProt P97784)
Sequence (P97784 whole entry): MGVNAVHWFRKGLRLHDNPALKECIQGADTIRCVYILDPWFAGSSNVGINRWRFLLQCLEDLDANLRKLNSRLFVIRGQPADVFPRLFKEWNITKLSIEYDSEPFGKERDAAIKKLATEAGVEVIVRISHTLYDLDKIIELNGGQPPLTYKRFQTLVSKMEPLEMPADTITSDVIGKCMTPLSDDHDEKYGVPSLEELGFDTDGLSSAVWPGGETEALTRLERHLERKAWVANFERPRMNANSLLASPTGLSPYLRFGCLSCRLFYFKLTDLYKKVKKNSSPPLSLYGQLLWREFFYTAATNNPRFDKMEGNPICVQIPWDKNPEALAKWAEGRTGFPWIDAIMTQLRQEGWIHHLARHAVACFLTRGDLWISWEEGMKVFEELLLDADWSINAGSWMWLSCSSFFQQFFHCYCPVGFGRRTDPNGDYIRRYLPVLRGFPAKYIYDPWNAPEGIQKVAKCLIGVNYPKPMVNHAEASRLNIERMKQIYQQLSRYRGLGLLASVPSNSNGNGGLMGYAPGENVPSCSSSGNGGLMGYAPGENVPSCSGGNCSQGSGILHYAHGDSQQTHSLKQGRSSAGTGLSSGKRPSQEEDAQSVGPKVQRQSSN

Basic helix-loop-helix ARNT-like protein 1 (Mus musculus), Q9WTL8-2 K537R, sequence (Q9WTL8 other isoform, or with tags, fused parts or gaps K537R): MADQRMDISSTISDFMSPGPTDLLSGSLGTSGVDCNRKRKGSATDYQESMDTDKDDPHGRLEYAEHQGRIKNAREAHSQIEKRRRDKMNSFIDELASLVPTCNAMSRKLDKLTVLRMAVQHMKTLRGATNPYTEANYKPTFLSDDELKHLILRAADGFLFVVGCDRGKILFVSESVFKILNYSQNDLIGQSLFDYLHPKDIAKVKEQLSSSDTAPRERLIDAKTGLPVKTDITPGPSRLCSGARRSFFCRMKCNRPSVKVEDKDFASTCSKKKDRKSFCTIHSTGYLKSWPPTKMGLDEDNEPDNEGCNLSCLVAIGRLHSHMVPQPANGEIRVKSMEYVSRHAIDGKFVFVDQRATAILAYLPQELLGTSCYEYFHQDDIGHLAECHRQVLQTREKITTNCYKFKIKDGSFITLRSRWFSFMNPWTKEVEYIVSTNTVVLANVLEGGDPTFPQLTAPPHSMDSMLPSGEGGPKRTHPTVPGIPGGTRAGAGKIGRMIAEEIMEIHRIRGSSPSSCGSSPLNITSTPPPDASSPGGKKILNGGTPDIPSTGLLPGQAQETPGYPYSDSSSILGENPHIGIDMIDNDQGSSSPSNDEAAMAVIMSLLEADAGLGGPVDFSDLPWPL

effect of a mutation on the interaction: decreasing interaction strength
Substance: Basic helix-loop-helix ARNT-like protein 1 (Mus musculus), Q9WTL8-2 K537R
